Publication PMC10454455

Legend:
[1] = target: CH505 T/F UFO Env trimer (HIV-1 (subject CH505)); assay: SEC; lectin-purified Env proteins separated on a Superdex 200 Increase 10/300 GL column
[2] = target: CH505 T/F UFO Env trimer (HIV-1 (subject CH505)); assay: native gel or EMSA; blue native gel (NativePAGE 3-12% Bis-Tris) of the fractions collected from SEC

Substance: CH505 T/F UFO Env trimer
- stoichiometry N [1]: 3
- stoichiometry N [2]: 3
